We go through one protein from article PMC5974136.

The target of this data set is Tyr24 (position 24, …). The data set is described as follows: NMR. Particulars: 10 C; no added salt (NaCl, KCl absent); 10 mM phosphate only; 10 mM phosphate buffer (initial pH 7), 0.1 mM DSS; soluble, predominantly disordered repetitive domain; about 1.5-2.2 mM protein.

B1: MaSp1 repetitive domain 15-mer (15 contiguous copies of the consensus repeat of major ampullate spidroin 1) (Nephila clavipes (Trichonephila clavipes); … (protein)
chain: GRGGLGGQGAGAAAAAGGAGQGGYGGLGSQGTSGRGGLGGQGAGAAAAAGGAGQGGYGGLGSQGTSGRGGLGGQGAGAAAAAGGAGQGGYGGLGSQGTSGRGGLGGQGAGAAAAAGGAGQGGYGGLGSQGTSGRGGLGGQGAGAAAAAGGAGQGGYGGLGSQGTSGRGGLGGQGAGAAAAAGGAGQGGYGGLGSQGTSGRGGLGGQGAGAAAAAGGAGQGGYGGLGSQGTSGRGGLGGQGAGAAAAAGGAGQGGYGGLGSQGTSGRGGLGGQGAGAAAAAGGAGQGGYGGLGSQGTSGRGGLGGQGAGAAAAAGGAGQGGYGGLGSQGTSGRGGLGGQGAGAAAAAGGAGQGGYGGLGSQGTSGRGGLGGQGAGAAAAAGGAGQGGYGGLGSQGTSGRGGLGGQGAGAAAAAGGAGQGGYGGLGSQGTSGRGGLGGQGAGAAAAAGGAGQGGYGGLGSQGTSGRGGLGGQGAGAAAAAGGAGQGGYGGLGSQGTS
On to B1, for which the pKa was determined as 10.25 ± 0.02.
